The source of these data is the supplement of paper PMC10567573.

Sequences and labels used below:
B1: RHOBTB3 (parent)
chain: KVVEAHKIVLCAVSHVFMLLFNVK
B2: P2RY14 (parent)
chain: KLLSVIVWMLMLLLAVPNIILTNQ
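Also: lentivirally expressed fusions sorted by FACS into six bins by GFP to DsRed ratio, PSI derived from sequencing read proportions per bin multiplied by bin number.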

In the first data set the parent is B1. Kind of data set: protein stability index of a GFP-peptide fusion (GPS, HEK-293T) (PSI 1-6); higher = more stable. The conditions noted are these: c terminus: a fixed tail appended.
Turning to KVVEAHKIVECAVSHVFMLLFNVK [L10E], the protein stability index was found to be 2.73.

As to KVVEAHKIVTCAVSHVFMLLFNVK [L10T], the protein stability index is 3.3.

Regarding KVVEAEKIVLCAVSHVFMLLFNVK [H6E], the protein stability index was found to be 2.21.

Turning to KVVEAHKIVLCAVSHVDMLLFNVK [F17D], the protein stability index was 2.52.

For the variant KVVEAHKIQLCAVSHVFMLLFNVK [V9Q], the protein stability index is 2.73.

As to KVVEAHKIFLCAVSHVFMLLFNVK [V9F], the protein stability index amounted to 2.7.

With KVVEAHKIVLCAVSKVFMLLFNVK [H15K], the protein stability index was found to be 2.17.

For KVVEAHKIVLCHVSHVFMLLFNVK [A12H], the protein stability index is 2.83.

Take KVVEAHKIVLCGVSHVFMLLFNVK [A12G]: the protein stability index amounted to 2.92.

As for KVVEAHKIVLCKVSHVFMLLFNVK [A12K], the protein stability index worked out at 2.92.

For the variant KVVEAHKIVLCEVSHVFMLLFNVK [A12E], the protein stability index was determined as 2.31.

RVVEAHKIVLCAVSHVFMLLFNVK [K1R]: the protein stability index was found to be 2.68.

Take KVVEAHKIVLCAVSHVFMLLFNEK [V23E]: the protein stability index was 3.25.

For the variant KVVEHHKIVLCAVSHVFMLLFNVK [A5H], the protein stability index stood at 2.9.

KVVEAHKIVLCAVSHQFMLLFNVK [V16Q]: the protein stability index was determined as 3.14.

Turning to KVVEAHKIVLCAVSHCFMLLFNVK [V16C], the protein stability index worked out at 3.59.

Consider KVVEAHKIVLCAVSHVFMLEFNVK [L20E], for which the protein stability index stood at 1.65.

For KVVEAHKIVLCAVSHVFMLAFNVK [L20A], the protein stability index came to 3.27.

For KVVEAHKIVLCAVSHVFFLLFNVK [M18F], the protein stability index amounted to 3.57.

For KVVEAHKIVLCAVSHVFALLFNVK [M18A], the protein stability index amounted to 3.04.

Regarding KVVEAHKIVLCAVSHVFYLLFNVK [M18Y], the protein stability index was determined as 2.5.

As to KVVEAHKIVLCAVSHVFELLFNVK [M18E], the protein stability index stood at 2.48.

Take KVVEAHKCVLCAVSHVFMLLFNVK [I8C]: the protein stability index was determined as 2.2.

Turning to KVVEAHKQVLCAVSHVFMLLFNVK [I8Q], the protein stability index came out at 2.41.

Consider KVVEAHKWVLCAVSHVFMLLFNVK [I8W], for which the protein stability index is 3.31.

Consider KDVEAHKIVLCAVSHVFMLLFNVK [V2D], for which the protein stability index is 2.57.

Turning to KNVEAHKIVLCAVSHVFMLLFNVK [V2N], the protein stability index came out at 2.44.

Turning to KQVEAHKIVLCAVSHVFMLLFNVK [V2Q], the protein stability index came to 2.04.

For KVVEAHKIVLCAVSHVFMLLKNVK [F21K], the protein stability index is 1.76.

For the variant KVVEAHKIVLCAVSHVFMLLRNVK [F21R], the protein stability index is 1.81.

For KVVEAHKIVLHAVSHVFMLLFNVK [C11H], the protein stability index amounted to 4.45.

For KVVEAHKIVLTAVSHVFMLLFNVK [C11T], the protein stability index worked out at 1.99.

Take KVVEAHKIVLCAVSHVFMLLFNVV [K24V]: the protein stability index is 3.19.

As to KVVEAHKIVLCAVSHVFMLLFNVL [K24L], the protein stability index is 2.21.

On to KVVEAHKIVLCAVSHVFMLLFNVE [K24E], for which the protein stability index was determined as 3.19.

Consider KVVEAHKIVLCAVSHVFMLLFKVK [N22K], for which the protein stability index was found to be 1.9.

Regarding KVVEAHKIVLCAVSHVFMLLFLVK [N22L], the protein stability index is 2.42.

As to KVVTAHKIVLCAVSHVFMLLFNVK [E4T], the protein stability index came out at 2.53.

Take KVVVAHKIVLCAVSHVFMLLFNVK [E4V]: the protein stability index turned out to be 2.79.

As to KVVHAHKIVLCAVSHVFMLLFNVK [E4H], the protein stability index worked out at 2.69.

Regarding KVVMAHKIVLCAVSHVFMLLFNVK [E4M], the protein stability index came to 2.54.

With KVVFAHKIVLCAVSHVFMLLFNVK [E4F], the protein stability index was found to be 2.23.

As for KVVEAHKIVLCAVPHVFMLLFNVK [S14P], the protein stability index worked out at 2.55.

With KVVEAHMIVLCAVSHVFMLLFNVK [K7M], the protein stability index was 2.93.

Turning to KVVEAHCIVLCAVSHVFMLLFNVK [K7C], the protein stability index came out at 1.83.

The variants in the next data set derive from B2. The description is as above. Conditions: c terminus: a fixed tail appended.
As to KLLSVIVWMLMLLLAVPNIIRTNQ [L21R], the protein stability index worked out at 4.98.

Regarding KLLSVIVWMLMLLLAVPNIITTNQ [L21T], the protein stability index was 3.22.

KLLSVIVWMLMLLLAVPNIIITNQ [L21I]: the protein stability index worked out at 3.12.

Turning to KLLSVIVWMLMLLLAVPNIIPTNQ [L21P], the protein stability index is 1.98.

With KLLSVIVWMLMLLLAVPNIISTNQ [L21S], the protein stability index was 2.57.

Turning to KLLSVIVWMLMLLLAVPNIIMTNQ [L21M], the protein stability index is 2.96.

Take KLLSVIVWMLMLLLAVPNIINTNQ [L21N]: the protein stability index worked out at 2.28.

On to KLLSVIVWMLMLLLAVPNIILTRQ [N23R], for which the protein stability index was 1.92.

For KLLSVIVWMLMLLLAVPNIILTHQ [N23H], the protein stability index worked out at 3.59.

For KLLSVIVWMLMLLLAVPNIILTEQ [N23E], the protein stability index was determined as 3.67.

Regarding KLLSVIVWMLMLLLAVPNIILTYQ [N23Y], the protein stability index was determined as 2.21.

KLLSVIVWMLMLLLAVPNIILTCQ [N23C]: the protein stability index was 2.15.

On to KLLSVIVWMLMLLLAVPNIILTVQ [N23V], for which the protein stability index came out at 2.99.

KLLSVIVWMLMLLLAVPNIILTWQ [N23W]: the protein stability index turned out to be 2.57.

On to KLLSVIVWMLMLLLAVPNIILTGQ [N23G], for which the protein stability index came out at 2.54.

As for KLLSVIVWMLMLLLAVPNIILTMQ [N23M], the protein stability index is 2.42.

As to KLLSVIVWMLMLLLAVPNIILTFQ [N23F], the protein stability index stood at 2.98.

For the variant KLLSVIVWMLMLLLAVPNIILTIQ [N23I], the protein stability index came to 1.

Turning to KLLSVIVWMLMLLLAVPNIILTTQ [N23T], the protein stability index turned out to be 2.97.

Consider KLLSVIVWMLMLLLAVPNIILTAQ [N23A], for which the protein stability index stood at 2.34.

As to KLLSVIVWMLMLLLAVPNIILTKQ [N23K], the protein stability index was found to be 2.45.

For the variant KLLSVIVWMLMLLLAVPNIILTDQ [N23D], the protein stability index turned out to be 3.86.

For KLLSVIVWMLMLLLAVPNIILTNR [Q24R], the protein stability index came to 3.28.

In the case of KLLSVIVWMLMLLLAVPNIILTNL [Q24L], the protein stability index came out at 3.08.

For the variant KLLSVIVWMLMLLLAVPNIILTNH [Q24H], the protein stability index stood at 2.8.

For the variant KLLSVIVWMLMLLLAVPNIILTNK [Q24K], the protein stability index was 2.6.

Take KLLSVIVWMLMLLLAVPNIILTNW [Q24W]: the protein stability index came out at 2.33.

Turning to KLLSVIVWMLMLLLAVPNIILTNV [Q24V], the protein stability index is 1.96.

Turning to KLLSVIVWMLMLLLAVPNIILTNT [Q24T], the protein stability index stood at 2.81.

On to KLLSVIVWMLMLLLAVPNIILTND [Q24D], for which the protein stability index came to 4.62.

Take KLLSVIVWMLMLLLAVPNIILTNI [Q24I]: the protein stability index turned out to be 2.79.

With KLLSVIVWMLMLLLAVPNIILTNC [Q24C], the protein stability index amounted to 2.79.

As to KLLSVIVWMLMLLLAVPNIILTNP [Q24P], the protein stability index amounted to 2.59.

Regarding KLLSVIVWMLMLLLAVPNIILTNE [Q24E], the protein stability index was 2.74.

As to KLLSVIVWMLMLLLAVPNIILTNG [Q24G], the protein stability index turned out to be 2.91.

Consider KLLSVIVWMLMLLLAVPNIILTNF [Q24F], for which the protein stability index was determined as 2.69.

Take KLLSVIVWMLMLLLAVPNIILSNQ [T22S]: the protein stability index worked out at 3.96.

With KLLSVIVWMLMLLLAVPNIILMNQ [T22M], the protein stability index worked out at 2.38.

Turning to KLLSVIVWMLMLLLAVPNIILDNQ [T22D], the protein stability index was found to be 4.01.

Take KLLSVIVWMLMLLLAVPNIILLNQ [T22L]: the protein stability index stood at 2.2.

Take KLLSVIVWMLMLLLAVPNIILANQ [T22A]: the protein stability index was 2.75.

As to KLLSVIVWMLMLLLAVPNIILWNQ [T22W], the protein stability index came to 2.92.

Regarding KLLSVIVWMLMLLLAVPNIILYNQ [T22Y], the protein stability index was 3.3.

On to KLLSVIVWMLMLLLAVPNIILNNQ [T22N], for which the protein stability index was found to be 2.75.

KLLSVIVWMLMLLLAVPNIILFNQ [T22F]: the protein stability index turned out to be 2.97.

With KLLSVIVWMLMLLLAVPNIILHNQ [T22H], the protein stability index worked out at 2.69.

On to KLLSVIVWMLMLLLAVPNIILKNQ [T22K], for which the protein stability index is 3.2.

As for KLLSVIVWMLMLLLAVPNIILVNQ [T22V], the protein stability index stood at 4.59.

With KLLSVIVWMLMLLLAVPNIILINQ [T22I], the protein stability index came to 2.32.
